In patent publication US20030186334A1, “KTS-disintegrins” (Temple University - Of the Commonwealth System of Higher …, priority 2001, published 2003):
Where two headings read alike, the source gives them in different places.

Experiments:
αIIbβ3 integrin, P08514 [1] = assay: inhibition of adhesion of A5 cells to fibrinogen
α4β1 integrin, P13612 = assay: inhibition of adhesion of Jurkat cells to VCAM-1
αvβ3 integrin, P06756 = target: T1, αvβ3 integrin, P06756; assay: inhibition of adhesion of JY cells to vitronectin
T1 chain 1: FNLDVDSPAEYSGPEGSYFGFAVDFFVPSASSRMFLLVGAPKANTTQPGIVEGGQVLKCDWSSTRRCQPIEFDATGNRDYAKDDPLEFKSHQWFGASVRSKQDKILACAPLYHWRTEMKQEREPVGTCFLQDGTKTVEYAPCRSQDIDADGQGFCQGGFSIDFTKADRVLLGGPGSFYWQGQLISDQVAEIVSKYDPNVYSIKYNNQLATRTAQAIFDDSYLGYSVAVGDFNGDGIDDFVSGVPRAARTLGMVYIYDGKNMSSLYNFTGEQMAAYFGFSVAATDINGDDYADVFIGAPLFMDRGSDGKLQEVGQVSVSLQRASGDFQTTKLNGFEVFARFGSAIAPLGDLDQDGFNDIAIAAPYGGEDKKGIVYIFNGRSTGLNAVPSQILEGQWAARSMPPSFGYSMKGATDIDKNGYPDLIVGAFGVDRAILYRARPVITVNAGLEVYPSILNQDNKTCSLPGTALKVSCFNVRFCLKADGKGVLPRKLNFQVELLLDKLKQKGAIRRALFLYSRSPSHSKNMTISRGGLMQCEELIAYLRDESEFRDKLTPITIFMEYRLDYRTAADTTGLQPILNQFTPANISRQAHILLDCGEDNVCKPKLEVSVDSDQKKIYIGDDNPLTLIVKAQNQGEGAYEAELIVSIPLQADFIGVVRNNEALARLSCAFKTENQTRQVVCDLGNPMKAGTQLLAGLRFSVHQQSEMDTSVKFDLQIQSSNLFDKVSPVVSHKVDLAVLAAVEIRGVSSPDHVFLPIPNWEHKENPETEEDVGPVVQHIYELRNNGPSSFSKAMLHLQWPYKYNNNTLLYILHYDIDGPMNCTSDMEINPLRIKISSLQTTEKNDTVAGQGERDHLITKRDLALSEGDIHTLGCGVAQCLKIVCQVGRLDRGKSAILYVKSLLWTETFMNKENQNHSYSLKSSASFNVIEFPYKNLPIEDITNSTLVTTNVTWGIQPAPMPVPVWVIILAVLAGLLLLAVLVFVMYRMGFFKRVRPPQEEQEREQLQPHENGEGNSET
T1 chain 2: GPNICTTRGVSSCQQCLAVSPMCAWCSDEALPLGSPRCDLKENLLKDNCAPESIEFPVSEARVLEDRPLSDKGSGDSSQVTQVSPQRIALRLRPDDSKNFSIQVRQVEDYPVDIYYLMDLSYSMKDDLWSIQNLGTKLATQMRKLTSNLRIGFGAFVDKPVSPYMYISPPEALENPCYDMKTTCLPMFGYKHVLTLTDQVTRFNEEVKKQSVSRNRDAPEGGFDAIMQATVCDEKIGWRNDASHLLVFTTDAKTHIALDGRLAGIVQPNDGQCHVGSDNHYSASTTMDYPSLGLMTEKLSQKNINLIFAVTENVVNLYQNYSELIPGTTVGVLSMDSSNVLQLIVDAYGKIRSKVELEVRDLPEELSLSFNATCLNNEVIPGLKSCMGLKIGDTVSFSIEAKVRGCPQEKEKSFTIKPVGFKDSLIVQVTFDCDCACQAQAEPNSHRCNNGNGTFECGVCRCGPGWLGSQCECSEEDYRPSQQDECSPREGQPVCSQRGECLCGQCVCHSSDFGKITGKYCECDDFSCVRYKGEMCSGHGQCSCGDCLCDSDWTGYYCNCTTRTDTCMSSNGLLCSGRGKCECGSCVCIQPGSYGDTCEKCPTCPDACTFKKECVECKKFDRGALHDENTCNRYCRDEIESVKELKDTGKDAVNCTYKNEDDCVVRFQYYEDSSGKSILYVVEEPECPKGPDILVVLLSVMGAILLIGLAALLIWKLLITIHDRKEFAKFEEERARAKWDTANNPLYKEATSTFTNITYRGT

α9β1 integrin, Q13797 = assay: inhibition of adhesion of SW480α9 cells to VCAM-1
α5β1 integrin, P08648 [2] = assay: inhibition of adhesion of K562 cells to fibronectin
Target sequence in this assay (P08648 42-1049): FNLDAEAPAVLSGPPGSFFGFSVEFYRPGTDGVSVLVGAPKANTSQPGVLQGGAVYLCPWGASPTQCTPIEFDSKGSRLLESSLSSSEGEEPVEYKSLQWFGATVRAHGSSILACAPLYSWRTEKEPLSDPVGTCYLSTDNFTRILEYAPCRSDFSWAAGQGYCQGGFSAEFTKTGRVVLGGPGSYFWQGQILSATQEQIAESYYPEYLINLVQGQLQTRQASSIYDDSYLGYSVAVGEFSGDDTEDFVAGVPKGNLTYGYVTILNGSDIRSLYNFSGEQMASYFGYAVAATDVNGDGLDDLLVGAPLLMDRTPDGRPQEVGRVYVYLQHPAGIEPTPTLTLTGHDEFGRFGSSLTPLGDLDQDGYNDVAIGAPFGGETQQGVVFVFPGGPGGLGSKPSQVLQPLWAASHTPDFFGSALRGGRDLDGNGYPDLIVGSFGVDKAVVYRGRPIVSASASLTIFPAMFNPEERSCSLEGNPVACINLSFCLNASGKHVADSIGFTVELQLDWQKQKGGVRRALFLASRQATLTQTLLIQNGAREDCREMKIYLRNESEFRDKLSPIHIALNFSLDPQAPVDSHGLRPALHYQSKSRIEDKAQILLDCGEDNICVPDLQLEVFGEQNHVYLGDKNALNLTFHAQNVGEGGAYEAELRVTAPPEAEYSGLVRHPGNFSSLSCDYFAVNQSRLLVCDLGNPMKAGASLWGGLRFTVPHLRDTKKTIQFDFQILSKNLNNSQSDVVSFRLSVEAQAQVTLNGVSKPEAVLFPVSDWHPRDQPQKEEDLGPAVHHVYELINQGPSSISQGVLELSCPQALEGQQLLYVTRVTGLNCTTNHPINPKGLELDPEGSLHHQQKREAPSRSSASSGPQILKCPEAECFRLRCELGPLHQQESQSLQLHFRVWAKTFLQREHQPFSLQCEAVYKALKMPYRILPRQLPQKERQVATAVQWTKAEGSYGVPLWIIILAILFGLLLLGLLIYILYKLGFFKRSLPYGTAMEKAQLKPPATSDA

α2β1 integrin, P17301 = assay: inhibition of adhesion of α2K562 cells to collagen I
[3] = target: human α1β1 integrin (human), P56199; assay: inhibition of adhesion of α1K562 cells to collagen I
[4] = target: human α1β1 integrin (human), P56199; assay: inhibition of adhesion of α1K562 cells to collagen IV
[5] = target: T2, mouse α1β1 integrin (mouse), Q3V3R4; assay: inhibition of adhesion of B16F10 cells to collagen IV
T2 chain 1: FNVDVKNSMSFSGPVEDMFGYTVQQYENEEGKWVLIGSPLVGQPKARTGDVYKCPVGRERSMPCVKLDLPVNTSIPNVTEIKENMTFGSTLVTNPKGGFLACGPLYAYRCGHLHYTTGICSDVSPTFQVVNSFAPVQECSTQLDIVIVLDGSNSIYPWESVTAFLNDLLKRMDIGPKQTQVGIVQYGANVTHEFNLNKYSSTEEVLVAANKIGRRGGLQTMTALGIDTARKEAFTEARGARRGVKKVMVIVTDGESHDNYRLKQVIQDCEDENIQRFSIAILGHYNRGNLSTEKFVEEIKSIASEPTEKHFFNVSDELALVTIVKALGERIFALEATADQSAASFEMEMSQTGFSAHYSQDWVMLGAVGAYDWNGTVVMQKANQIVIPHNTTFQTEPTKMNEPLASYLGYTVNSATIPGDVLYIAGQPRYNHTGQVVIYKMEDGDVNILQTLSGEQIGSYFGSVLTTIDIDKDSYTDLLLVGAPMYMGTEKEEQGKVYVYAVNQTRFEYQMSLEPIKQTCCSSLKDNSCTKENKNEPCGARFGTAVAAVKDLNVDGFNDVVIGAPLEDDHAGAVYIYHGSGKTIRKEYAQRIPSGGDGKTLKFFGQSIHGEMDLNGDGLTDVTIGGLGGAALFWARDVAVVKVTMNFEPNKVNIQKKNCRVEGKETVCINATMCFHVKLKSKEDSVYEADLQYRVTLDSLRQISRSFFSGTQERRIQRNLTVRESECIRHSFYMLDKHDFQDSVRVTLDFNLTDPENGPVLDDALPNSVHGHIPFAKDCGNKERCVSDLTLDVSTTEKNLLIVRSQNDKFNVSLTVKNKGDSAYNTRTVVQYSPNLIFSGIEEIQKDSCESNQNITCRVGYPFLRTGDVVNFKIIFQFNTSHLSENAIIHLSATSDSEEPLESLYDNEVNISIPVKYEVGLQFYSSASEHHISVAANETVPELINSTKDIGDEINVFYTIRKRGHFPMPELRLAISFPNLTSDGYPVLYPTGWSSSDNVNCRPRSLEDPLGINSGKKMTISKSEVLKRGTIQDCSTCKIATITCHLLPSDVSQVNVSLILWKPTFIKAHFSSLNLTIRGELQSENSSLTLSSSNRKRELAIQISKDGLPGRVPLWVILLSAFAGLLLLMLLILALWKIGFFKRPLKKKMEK
T2 chain 2: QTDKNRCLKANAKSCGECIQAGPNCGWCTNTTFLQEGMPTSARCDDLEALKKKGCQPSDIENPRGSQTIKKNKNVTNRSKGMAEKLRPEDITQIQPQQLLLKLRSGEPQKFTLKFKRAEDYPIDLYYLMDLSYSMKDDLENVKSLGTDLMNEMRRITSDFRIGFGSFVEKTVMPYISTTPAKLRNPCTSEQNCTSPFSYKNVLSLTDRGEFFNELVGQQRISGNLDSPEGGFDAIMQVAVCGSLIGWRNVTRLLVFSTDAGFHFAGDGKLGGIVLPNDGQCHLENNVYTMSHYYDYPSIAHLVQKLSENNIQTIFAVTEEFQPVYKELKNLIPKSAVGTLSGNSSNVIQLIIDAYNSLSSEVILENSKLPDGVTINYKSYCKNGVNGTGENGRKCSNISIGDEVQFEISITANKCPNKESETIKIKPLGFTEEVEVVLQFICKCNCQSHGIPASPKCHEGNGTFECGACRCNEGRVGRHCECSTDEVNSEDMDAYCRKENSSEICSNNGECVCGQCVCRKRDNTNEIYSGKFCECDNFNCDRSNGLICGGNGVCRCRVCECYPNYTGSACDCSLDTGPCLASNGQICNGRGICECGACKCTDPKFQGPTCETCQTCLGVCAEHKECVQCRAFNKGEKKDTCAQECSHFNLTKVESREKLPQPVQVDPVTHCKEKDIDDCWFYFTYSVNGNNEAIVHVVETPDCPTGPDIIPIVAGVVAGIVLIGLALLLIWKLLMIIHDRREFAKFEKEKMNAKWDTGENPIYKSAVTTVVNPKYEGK

[6] = target: human α1β1 integrin (human), P56199; assay: inhibition of adhesion of HS.939T cells to collagen IV
α5β1 integrin, P08648 [7] = assay: inhibition of adhesion of K562 cells to fibronectin; remark: listed apart in the source
Target sequence in this assay (P08648 42-1049, chain 1 of 2): as the sequence (P08648 42-1049) above
Target sequence in this assay (P05556 21-798, chain 2 of 2, further chain): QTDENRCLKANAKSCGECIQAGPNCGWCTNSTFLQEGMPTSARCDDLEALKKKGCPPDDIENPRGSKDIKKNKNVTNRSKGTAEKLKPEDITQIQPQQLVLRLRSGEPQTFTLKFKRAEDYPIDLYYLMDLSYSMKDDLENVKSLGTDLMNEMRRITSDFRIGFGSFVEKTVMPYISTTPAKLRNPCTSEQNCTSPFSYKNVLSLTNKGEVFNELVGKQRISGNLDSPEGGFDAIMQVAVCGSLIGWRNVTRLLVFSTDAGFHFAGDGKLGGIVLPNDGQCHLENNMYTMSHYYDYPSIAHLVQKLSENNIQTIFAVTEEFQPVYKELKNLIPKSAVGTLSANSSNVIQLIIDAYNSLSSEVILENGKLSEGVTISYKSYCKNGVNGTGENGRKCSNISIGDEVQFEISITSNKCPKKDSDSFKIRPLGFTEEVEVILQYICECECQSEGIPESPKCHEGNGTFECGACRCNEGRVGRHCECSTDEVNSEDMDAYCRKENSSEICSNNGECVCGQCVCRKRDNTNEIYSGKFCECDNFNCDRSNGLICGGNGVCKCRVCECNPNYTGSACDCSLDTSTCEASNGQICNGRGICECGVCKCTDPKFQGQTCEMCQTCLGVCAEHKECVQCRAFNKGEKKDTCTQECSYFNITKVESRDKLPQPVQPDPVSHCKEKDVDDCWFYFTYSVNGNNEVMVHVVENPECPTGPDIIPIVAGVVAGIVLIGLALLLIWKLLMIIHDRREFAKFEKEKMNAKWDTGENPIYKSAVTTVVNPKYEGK

[8] = target: human α1β1 integrin (human), P56199; assay: inhibition of adhesion of α1K562 cells to immobilised collagen IV
αIIbβ3 integrin, P08514 [9] = assay: inhibition of adhesion of A5 cells to fibrinogen; remark: listed apart in the source

α9β1 integrin, Q13797, sequence (Q13797 30-1035): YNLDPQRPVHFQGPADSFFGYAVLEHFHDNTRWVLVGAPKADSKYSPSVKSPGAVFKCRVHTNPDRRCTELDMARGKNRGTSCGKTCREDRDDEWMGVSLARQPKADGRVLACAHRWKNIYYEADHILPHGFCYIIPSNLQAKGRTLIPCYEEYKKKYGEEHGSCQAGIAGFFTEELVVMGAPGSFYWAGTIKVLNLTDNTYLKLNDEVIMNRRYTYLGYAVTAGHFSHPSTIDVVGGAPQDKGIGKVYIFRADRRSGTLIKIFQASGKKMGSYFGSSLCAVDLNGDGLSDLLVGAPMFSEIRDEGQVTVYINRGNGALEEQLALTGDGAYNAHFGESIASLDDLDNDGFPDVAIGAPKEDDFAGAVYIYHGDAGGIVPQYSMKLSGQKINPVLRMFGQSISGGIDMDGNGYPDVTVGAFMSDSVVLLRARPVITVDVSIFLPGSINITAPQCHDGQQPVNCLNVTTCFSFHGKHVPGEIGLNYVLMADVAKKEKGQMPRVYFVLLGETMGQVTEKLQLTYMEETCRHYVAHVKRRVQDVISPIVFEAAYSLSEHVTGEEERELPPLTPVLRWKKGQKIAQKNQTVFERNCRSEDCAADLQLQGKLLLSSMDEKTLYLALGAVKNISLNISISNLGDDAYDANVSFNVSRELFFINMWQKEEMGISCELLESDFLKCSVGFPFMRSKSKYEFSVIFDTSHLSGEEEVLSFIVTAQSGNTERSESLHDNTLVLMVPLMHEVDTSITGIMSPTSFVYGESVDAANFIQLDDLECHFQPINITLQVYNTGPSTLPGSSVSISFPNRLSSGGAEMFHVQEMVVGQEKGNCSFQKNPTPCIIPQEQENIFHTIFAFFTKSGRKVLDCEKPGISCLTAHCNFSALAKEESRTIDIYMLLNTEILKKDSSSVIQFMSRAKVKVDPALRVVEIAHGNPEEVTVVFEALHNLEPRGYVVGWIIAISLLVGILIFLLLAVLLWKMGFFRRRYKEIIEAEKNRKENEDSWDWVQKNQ

B1: echistatin, P17347 131-179 (peptide)
peptide: QCESGPCCRNCKFLKEGTICKRARGDDMDDYCNGKTCDCPRNPHKGPAT
modifications: not checked
αIIbβ3 integrin, P08514 [1]
  IC50: 0.05 µM
α4β1 integrin, P13612
  IC50: > 10 µM
αvβ3 integrin, P06756
  IC50: 0.0001 µM
α9β1 integrin, Q13797
  IC50: > 10 µM
α5β1 integrin, P08648 [2]
  IC50: 0.05 µM
α2β1 integrin, P17301
  IC50: > 10 µM
[3]
  IC50: > 10000 nM
[4]
  IC50: > 10000 nM
[5]
  IC50: > 10 µM
[6]
  IC50: > 10000 nM

B2: obtustatin (peptide)
peptide: CTTGPCCRQCKLKPAGTTCWKTSLTSHYCTGKSCDCPLYPG
modifications: not checked
αIIbβ3 integrin, P08514 [1]
  IC50: > 10 µM
α4β1 integrin, P13612
  IC50: > 10 µM
αvβ3 integrin, P06756
  IC50: > 10 µM
α9β1 integrin, Q13797
  IC50: > 10 µM
α5β1 integrin, P08648 [2]
  IC50: > 10 µM
α5β1 integrin, P08648 [7]
  IC50: > 5 µM
α2β1 integrin, P17301
  IC50: > 10 µM
[3]
  IC50: 0.5 nM
[4]
  IC50: 2 nM
[5]
  IC50: 0.0002 µM
[6]
  IC50: 0.1 nM
[8]
  IC50: 0.002 µM

B3: viperisrastatin (peptide)
peptide: CTTGPCCRQCKLKPAGTTCWKTSRTSHYCTGKSCDCPVYQG
modifications: not checked
α4β1 integrin, P13612
  IC50: > 10 µM
αIIbβ3 integrin, P08514 [9]
  IC50: > 10 µM
αvβ3 integrin, P06756
  IC50: > 10 µM
α9β1 integrin, Q13797
  IC50: > 10 µM
α5β1 integrin, P08648 [7]
  IC50: > 10 µM
α2β1 integrin, P17301
  IC50: > 10 µM
[3]
  IC50: 0.02 nM
[4]
  IC50: 0.08 nM
[5]
  IC50: 0.00025 µM
[6]
  IC50: 0.002 nM

B4: eristostatin, P0C6S4 1-49 (peptide)
peptide: QEEPCATGPCCRRCKFKRAGKVCRVARGDWNDDYCTGKSCDCPKNPWNG
modifications: not checked
αIIbβ3 integrin, P08514 [1]
  IC50: 0.005 µM
α4β1 integrin, P13612
  IC50: > 10 µM
αIIbβ3 integrin, P08514 [9]
  IC50: 0.05 µM
αvβ3 integrin, P06756
  IC50: 2 µM
α9β1 integrin, Q13797
  IC50: > 10 µM
α5β1 integrin, P08648 [2]
  IC50: > 10 µM
α2β1 integrin, P17301
  IC50: > 10 µM
[3]
  IC50: > 10000 nM
[4]
  IC50: > 10000 nM
[5]
  IC50: > 10 µM
[6]
  IC50: > 10000 nM

B5: synthetic peptide … (SEQ ID NO: 5) (peptide)
peptide: CWKTSLTSHYC
modifications: not checked
[8]
  IC50: 600 µM
